± gives the standard deviation of the averaged measurements.
B1: library; a variant is named by its letters at N, in order (parent)
chain: GCUGUCACCGAGAAACUGUGAAGUAUAUCUUAAACCUGGGCACUUAAAAGAUAUAUGGAGUUAGUAGUGCAACCUGCUCGGUCUGAUGAGUCCNNNNNNGGACGAAACAGC

Experiments:
cyclic di-GMP [1] = variants of: B1; assay: normalized RNA/DNA level without ligand (relative to sTRSVctl = 100) (log10 (% of sTRSVctl)); HEK293T; ligand: cyclic di-GMP (c-di-GMP-II aptamer); higher = less ribozyme self-cleavage, higher mRNA level; details: reporter: mCherry (pCS4076), ligand present: no
Procedure, shortened: (§1)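 For each 6-well well, 4 µg of library plasmid encoding mCherry-linked ribozyme switches, or eGFP-linked ones in some ligand experiments, was transfected into HEK293T. Any ligand was added 1 h before transfection, and RNA was extracted with EDTA 72 h after it, then reverse-transcribed, amplified, barcoded and sequenced. RNA level was obtained by dividing RNA reads by DNA reads, normalizing to a spiked-in non-cleaving sequence or to the top sequences, then scaling and log-transforming. The top set was 25 sequences, scaling was ×100 with log10, and ≥100 DNA reads were required.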

cyclic di-GMP [2] = variants of: B1; assay: normalized RNA/DNA level with ligand (relative to sTRSVctl = 100) (log10 (% of sTRSVctl)); HEK293T; ligand: cyclic di-GMP (c-di-GMP-II aptamer); ligand concentration (+) RNA-Seq: 1 mM; higher = less ribozyme self-cleavage, higher mRNA level; details: reporter: mCherry (pCS4076), ligand present: yes
Procedure, shortened: as §1

Variant	normalized RNA/DNA level without ligand (log10) (cyclic di-GMP [1])	normalized RNA/DNA level with ligand (log10) (cyclic di-GMP [2])
GCUGUCACCGAGAAACUGUGAAGUAUAUCUUAAACCUGGGCACUUAAAAGAUAUAUGGAGUUAGUAGUGCAACCUGCUCGGUCUGAUGAGUCCAUGCCUGGACGAAACAGC	1.74 ± 0.044	1.87 ± 0.14
GCUGUCACCGAGAAACUGUGAAGUAUAUCUUAAACCUGGGCACUUAAAAGAUAUAUGGAGUUAGUAGUGCAACCUGCUCGGUCUGAUGAGUCCAUGCCGGGACGAAACAGC	1.7503 ± 0.0015	1.86 ± 0.13
GCUGUCACCGAGAAACUGUGAAGUAUAUCUUAAACCUGGGCACUUAAAAGAUAUAUGGAGUUAGUAGUGCAACCUGCUCGGUCUGAUGAGUCCCUGCGUGGACGAAACAGC	1.723 ± 0.013	1.84 ± 0.1
GCUGUCACCGAGAAACUGUGAAGUAUAUCUUAAACCUGGGCACUUAAAAGAUAUAUGGAGUUAGUAGUGCAACCUGCUCGGUCUGAUGAGUCCCUGCGCGGACGAAACAGC	1.823 ± 0.0074	1.92 ± 0.052
GCUGUCACCGAGAAACUGUGAAGUAUAUCUUAAACCUGGGCACUUAAAAGAUAUAUGGAGUUAGUAGUGCAACCUGCUCGGUCUGAUGAGUCCAUGCUCGGACGAAACAGC	1.74 ± 0.052	1.85 ± 0.046
GCUGUCACCGAGAAACUGUGAAGUAUAUCUUAAACCUGGGCACUUAAAAGAUAUAUGGAGUUAGUAGUGCAACCUGCUCGGUCUGAUGAGUCCAUGCUAGGACGAAACAGC	1.57 ± 0.034	1.77 ± 0.06
GCUGUCACCGAGAAACUGUGAAGUAUAUCUUAAACCUGGGCACUUAAAAGAUAUAUGGAGUUAGUAGUGCAACCUGCUCGGUCUGAUGAGUCCUUGCGAGGACGAAACAGC	1.778 ± 0.01	1.88 ± 0.076
GCUGUCACCGAGAAACUGUGAAGUAUAUCUUAAACCUGGGCACUUAAAAGAUAUAUGGAGUUAGUAGUGCAACCUGCUCGGUCUGAUGAGUCCUUGCGGGGACGAAACAGC	1.84 ± 0.045	1.94 ± 0.04
GCUGUCACCGAGAAACUGUGAAGUAUAUCUUAAACCUGGGCACUUAAAAGAUAUAUGGAGUUAGUAGUGCAACCUGCUCGGUCUGAUGAGUCCUUGCGCGGACGAAACAGC	1.74 ± 0.027	1.83 ± 0.072
GCUGUCACCGAGAAACUGUGAAGUAUAUCUUAAACCUGGGCACUUAAAAGAUAUAUGGAGUUAGUAGUGCAACCUGCUCGGUCUGAUGAGUCCGUGCCUGGACGAAACAGC	1.81 ± 0.04	1.87 ± 0.1
GCUGUCACCGAGAAACUGUGAAGUAUAUCUUAAACCUGGGCACUUAAAAGAUAUAUGGAGUUAGUAGUGCAACCUGCUCGGUCUGAUGAGUCCAUGCGUGGACGAAACAGC	1.679 ± 0.011	1.79 ± 0.099
GCUGUCACCGAGAAACUGUGAAGUAUAUCUUAAACCUGGGCACUUAAAAGAUAUAUGGAGUUAGUAGUGCAACCUGCUCGGUCUGAUGAGUCCAUGCGGGGACGAAACAGC	1.74 ± 0.024	1.82 ± 0.098
GCUGUCACCGAGAAACUGUGAAGUAUAUCUUAAACCUGGGCACUUAAAAGAUAUAUGGAGUUAGUAGUGCAACCUGCUCGGUCUGAUGAGUCCAUGCGCGGACGAAACAGC	1.732 ± 0.016	1.86 ± 0.099
GCUGUCACCGAGAAACUGUGAAGUAUAUCUUAAACCUGGGCACUUAAAAGAUAUAUGGAGUUAGUAGUGCAACCUGCUCGGUCUGAUGAGUCCUUGCUAGGACGAAACAGC	1.62 ± 0.052	1.81 ± 0.07
GCUGUCACCGAGAAACUGUGAAGUAUAUCUUAAACCUGGGCACUUAAAAGAUAUAUGGAGUUAGUAGUGCAACCUGCUCGGUCUGAUGAGUCCCUGCCGGGACGAAACAGC	1.78 ± 0.011	1.92 ± 0.064
GCUGUCACCGAGAAACUGUGAAGUAUAUCUUAAACCUGGGCACUUAAAAGAUAUAUGGAGUUAGUAGUGCAACCUGCUCGGUCUGAUGAGUCCCUGCCUGGACGAAACAGC	1.64 ± 0.028	1.81 ± 0.15
GCUGUCACCGAGAAACUGUGAAGUAUAUCUUAAACCUGGGCACUUAAAAGAUAUAUGGAGUUAGUAGUGCAACCUGCUCGGUCUGAUGAGUCCUUGCCUGGACGAAACAGC	1.746 ± 0.0023	1.89 ± 0.091
GCUGUCACCGAGAAACUGUGAAGUAUAUCUUAAACCUGGGCACUUAAAAGAUAUAUGGAGUUAGUAGUGCAACCUGCUCGGUCUGAUGAGUCCUUGCCGGGACGAAACAGC	1.83 ± 0.058	1.91 ± 0.12
GCUGUCACCGAGAAACUGUGAAGUAUAUCUUAAACCUGGGCACUUAAAAGAUAUAUGGAGUUAGUAGUGCAACCUGCUCGGUCUGAUGAGUCCUUGCCCGGACGAAACAGC	1.83 ± 0.081	1.84 ± 0.2
GCUGUCACCGAGAAACUGUGAAGUAUAUCUUAAACCUGGGCACUUAAAAGAUAUAUGGAGUUAGUAGUGCAACCUGCUCGGUCUGAUGAGUCCGUGCUAGGACGAAACAGC	1.646 ± 0.0015	1.8 ± 0.091
GCUGUCACCGAGAAACUGUGAAGUAUAUCUUAAACCUGGGCACUUAAAAGAUAUAUGGAGUUAGUAGUGCAACCUGCUCGGUCUGAUGAGUCCCUGCUAGGACGAAACAGC	1.4 ± 0.025	1.57 ± 0.091
GCUGUCACCGAGAAACUGUGAAGUAUAUCUUAAACCUGGGCACUUAAAAGAUAUAUGGAGUUAGUAGUGCAACCUGCUCGGUCUGAUGAGUCCCUGCUCGGACGAAACAGC	1.7 ± 0.0046	1.83 ± 0.14
GCUGUCACCGAGAAACUGUGAAGUAUAUCUUAAACCUGGGCACUUAAAAGAUAUAUGGAGUUAGUAGUGCAACCUGCUCGGUCUGAUGAGUCCGUGCGAGGACGAAACAGC	1.6 ± 0.071	1.73 ± 0.1
GCUGUCACCGAGAAACUGUGAAGUAUAUCUUAAACCUGGGCACUUAAAAGAUAUAUGGAGUUAGUAGUGCAACCUGCUCGGUCUGAUGAGUCCGUGCGUGGACGAAACAGC	1.69 ± 0.052	1.84 ± 0.14
GCUGUCACCGAGAAACUGUGAAGUAUAUCUUAAACCUGGGCACUUAAAAGAUAUAUGGAGUUAGUAGUGCAACCUGCUCGGUCUGAUGAGUCCGUGCGCGGACGAAACAGC	1.74 ± 0.057	1.88 ± 0.056
GCUGUCACCGAGAAACUGUGAAGUAUAUCUUAAACCUGGGCACUUAAAAGAUAUAUGGAGUUAGUAGUGCAACCUGCUCGGUCUGAUGAGUCCGUGCGGGGACGAAACAGC	1.86 ± 0.043	1.92 ± 0.08

Reference: the supplement of paper PMC6757056
